Here are results for one substance from US20050221343A1.

Several values for one entry are separate records, joined by “and”; a condition that tells them apart may be missing. Equal values may be shown once.

Assay in all cases: cell-based or functional assay
Assay [1] has as its target (GFP S10 A10)-L1-NdeI::HPS::BamH1-L2-(GFP S11 SM5) (Pyrobaculum aerophilum).
Assay [2] addresses (GFP S10)-L1-sulfite reductase-L2-(GFP S11) (Pyrobaculum aerophilum).
Assay [3] has as its target sulfite reductase-GFP S10-11 OPT fusion protein (Pyrobaculum aerophilum; Aequorea victoria).
Assay [4] concerns the target (GFP S10 SM5)-L1-sulfite reductase-L2-(GFP S11 SM5) (Pyrobaculum aerophilum).

(GFP S10 A10)-L1-NdeI::HPS::BamH1-L2-(GFP S11 SM5) (Pyrobaculum aerophilum), sequence (main, as listed by the source): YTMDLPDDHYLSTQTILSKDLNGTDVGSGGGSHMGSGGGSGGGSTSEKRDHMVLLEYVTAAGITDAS
(GFP S10 SM5)-L1-sulfite reductase-L2-(GFP S11 SM5) (Pyrobaculum aerophilum), sequence (main, as listed by the source): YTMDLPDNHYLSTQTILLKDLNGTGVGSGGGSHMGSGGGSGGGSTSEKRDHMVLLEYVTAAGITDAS

On to GFP 1-9 OPT (from UniProt P42212 1-197), for which, in assay [1], the complementation signal relative to detection with GFP 1-10 OPT is 0.2 and 0.25. The complementation efficiency relative to the C-terminal GFP S11 M3 + GFP 1-10 OPT format in assay [2] came to 0.033. Moreover, the tagged fragment concentration at which complementation fluorescence plateaus, with limiting 2.5 µM GFP 1-9 OPT in assay [3] is more than 2.5 µM. Besides, the complementation rate in assay [4] is 20 fold.
